This note sets out measurements from paper doi:10.1101/2024.03.07.583919 (bioRxiv, 2024).

The series deals with the molecule itself. The series is described as follows: SEC.

B1: wild-type human GCAP1-E6S (Guanylate Cyclase Activating Protein 1), myristoylated (natural protein)
chain: MGNVMSGKSVEELSSTECHQWYKKFMTECPSGQLTLYEFRQFFGLKNLSPSASQYVEQMFETFDFNKDGYIDFMEYVAALSLVLKGKVEQKLRWYFKLYDVDGNGCIDRDELLTIIQAIRAINPCSDTTMTAEEFTDTVFSKIDVNGDGELSLEEFIEGVQKDQMLLDTLTRSLDLTRIVRRLQNGEQDEEGADEAAEAAG
modifications: myristoylated at the N-terminal (by S. cerevisiae N-myristoyltransferase)
On to B1, for which the binding result is given as “binds”.

B2: E111V-GCAP1 (human GCAP1-E6S with the cone-rod dystrophy substitution E111V), myristoylated (natural protein)
chain: MGNVMSGKSVEELSSTECHQWYKKFMTECPSGQLTLYEFRQFFGLKNLSPSASQYVEQMFETFDFNKDGYIDFMEYVAALSLVLKGKVEQKLRWYFKLYDVDGNGCIDRDVLLTIIQAIRAINPCSDTTMTAEEFTDTVFSKIDVNGDGELSLEEFIEGVQKDQMLLDTLTRSLDLTRIVRRLQNGEQDEEGADEAAEAAG
modifications: myristoylated at the N-terminal (by S. cerevisiae N-myristoyltransferase)
For B2, the binding result was “binds”.
